According to doi:10.1101/2025.07.28.666932, “Mechanism-Guided Engineering of Fluorinase Unlocks Efficient Nucleophilic Biofluorination” (bioRxiv, 2025):
“And” between values parts separate entries of the source, which are not always exact repeats. Equal values may be shown once.

What was measured:
[1] = target: the molecule itself; test: mass photometry; free enzyme, 500 nM, 30 mM HEPES buffer, pH 7.5, 20 °C; histograms fitted to the sum of five Gaussian distributions
[2] = target: the molecule itself; test: mass photometry; in the presence of substrates, under the reaction conditions; fitted globally with the kinetic data (association constants monomer to trimer K_(a,3E), hexamer K_(a,6E), higher oligomers K_(a,agg))
[3] = target: the molecule itself; test: not stated; oligomeric state under all conditions of the kinetic experiments (Fig. S8); method not given

B1: fluorinase FlA1 from Streptomyces sp. strain MA37 (5'-fluoro-5'-deoxyadenosine synthase), wild type (enzyme, UniProt W0W999 1-299, looked up)
chain: MAANGSQRPIIAFMSDLGTTDDSVAQCKGLMHSICPGVTVVDVCHSMTPWDVEEGARYIVDLPRFFPEGTVFATTTYPATGTTTRSVAVRIRQAAKGGARGQWAGSGDGFERADGSYIYIAPNNGLLTTVLEEHGYIEAYEVTSTKVIPANPEPTFYSREMVAIPSAHLAAGFPLAEVGRRLDDSEIVRFHRPAVEISGEALSGVVTAIDHPFGNIWTNIHRTDLEKAGIGQGKHLKIILDDVLPFEAPLTPTFADAGAIGNIAFYLNSRGYLSLARNAASLAYPYNLKAGLKVRVEAR
notes: fluorinase FlA1 (5'-fluoro-5'-deoxyadenosine synthase), Streptomyces sp. strain MA37; Exists as trimers, hexamers and higher oligomers; also called wild-type FlA1; wild-type fluorinase; source: overexpressed in Escherichia coli, purified
[1]
  stoichiometry N: 3 and 6

B2: fluorinase FlA1 double mutant W50F+A279R (enzyme, Streptomyces sp. strain MA37, UniProt W0W999 1-299, looked up)
chain: MAANGSQRPIIAFMSDLGTTDDSVAQCKGLMHSICPGVTVVDVCHSMTPFDVEEGARYIVDLPRFFPEGTVFATTTYPATGTTTRSVAVRIRQAAKGGARGQWAGSGDGFERADGSYIYIAPNNGLLTTVLEEHGYIEAYEVTSTKVIPANPEPTFYSREMVAIPSAHLAAGFPLAEVGRRLDDSEIVRFHRPAVEISGEALSGVVTAIDHPFGNIWTNIHRTDLEKAGIGQGKHLKIILDDVLPFEAPLTPTFADAGAIGNIAFYLNSRGYLSLARNRASLAYPYNLKAGLKVRVEAR
notes: fluorinase FlA1, Streptomyces sp. strain MA37, wild type with W50F and A279R; also called A279R+W50F; FlA1+A279R+W50F
[2]
  stoichiometry N: 6

B3: fluorinase FlA1 variant W50F (enzyme, Streptomyces sp. strain MA37, UniProt W0W999 1-299, looked up)
chain: MAANGSQRPIIAFMSDLGTTDDSVAQCKGLMHSICPGVTVVDVCHSMTPFDVEEGARYIVDLPRFFPEGTVFATTTYPATGTTTRSVAVRIRQAAKGGARGQWAGSGDGFERADGSYIYIAPNNGLLTTVLEEHGYIEAYEVTSTKVIPANPEPTFYSREMVAIPSAHLAAGFPLAEVGRRLDDSEIVRFHRPAVEISGEALSGVVTAIDHPFGNIWTNIHRTDLEKAGIGQGKHLKIILDDVLPFEAPLTPTFADAGAIGNIAFYLNSRGYLSLARNAASLAYPYNLKAGLKVRVEAR
notes: fluorinase FlA1, Streptomyces sp. strain MA37, wild type with W50F
[2]
  binding result: binds

B4: fluorinase FlA1 variant C44T (enzyme, Streptomyces sp. strain MA37, UniProt W0W999 1-299, looked up)
chain: MAANGSQRPIIAFMSDLGTTDDSVAQCKGLMHSICPGVTVVDVTHSMTPWDVEEGARYIVDLPRFFPEGTVFATTTYPATGTTTRSVAVRIRQAAKGGARGQWAGSGDGFERADGSYIYIAPNNGLLTTVLEEHGYIEAYEVTSTKVIPANPEPTFYSREMVAIPSAHLAAGFPLAEVGRRLDDSEIVRFHRPAVEISGEALSGVVTAIDHPFGNIWTNIHRTDLEKAGIGQGKHLKIILDDVLPFEAPLTPTFADAGAIGNIAFYLNSRGYLSLARNAASLAYPYNLKAGLKVRVEAR
notes: fluorinase FlA1, Streptomyces sp. strain MA37, with C44T; everywhere else C44T; also called FlA1+C44T
[3]
  stoichiometry N: 6

B5: fluorinase FlA1 variant A279R (enzyme, Streptomyces sp. strain MA37, UniProt W0W999 1-299, looked up)
chain: MAANGSQRPIIAFMSDLGTTDDSVAQCKGLMHSICPGVTVVDVCHSMTPWDVEEGARYIVDLPRFFPEGTVFATTTYPATGTTTRSVAVRIRQAAKGGARGQWAGSGDGFERADGSYIYIAPNNGLLTTVLEEHGYIEAYEVTSTKVIPANPEPTFYSREMVAIPSAHLAAGFPLAEVGRRLDDSEIVRFHRPAVEISGEALSGVVTAIDHPFGNIWTNIHRTDLEKAGIGQGKHLKIILDDVLPFEAPLTPTFADAGAIGNIAFYLNSRGYLSLARNRASLAYPYNLKAGLKVRVEAR
notes: fluorinase FlA1, Streptomyces sp. strain MA37, wild type with A279R
[2]
  stoichiometry N: 6
